Experimental data reported in paper PMC7969741.
Non-standard residues stand in square brackets, D forms with d.

Biological target: αV integrin (human (endogenous in SV40 immortalized human chondrocytes))

B1: cyclic peptide RGDfK (cRGDfK) (peptide)
peptide: cyclo(RGD[dF]K)
modifications: also: conjugated to 3' end of Cy3-labelled 18-nt ssDNA
**Q.** For B1, which tension gauge tether (TGT) assay: rupture of RGDfK-dsDNA tethers of 43 and 54 pN tension tolerance and loss of cell attachment, SV40 chondrocytes prechallenged with shear stress is on record?
**A.** The tension gauge tether (TGT) assay: rupture of RGDfK-dsDNA tethers of 43 and 54 pN tension tolerance and loss of cell attachment, SV40 chondrocytes prechallenged with shear stress was over 43 pN.
